Numbered stars: 1 amine (or outer) side, 2 acyl side, 3 side chain; on linkers, the order of the positions; unused ones are H or OH. Bridge positions count the residues as written; N and C are the ends. Square brackets hold non-standard residues; d marks the D form. Ends that are not written are not given here. * marks the point of attachment. TATA = O=C(CC[*:1])N1CN(C(=O)CC[*:2])CN(C(=O)CC[*:3])C1; hArg = N=C(N)NCCCC[C@H](N)C(=O)O; Agb = N=C(N)NCC[C@H](N)C(=O)O; Pent4ynoyl = C#CCCC(=O)*
Target: human ACE2 (angiotensin-converting enzyme 2) (human, UniProt Q9BYF1 18-805)
Experiment: cell-based or functional assay

human ACE2 (angiotensin-converting enzyme 2), sequence (Q9BYF1 18-805): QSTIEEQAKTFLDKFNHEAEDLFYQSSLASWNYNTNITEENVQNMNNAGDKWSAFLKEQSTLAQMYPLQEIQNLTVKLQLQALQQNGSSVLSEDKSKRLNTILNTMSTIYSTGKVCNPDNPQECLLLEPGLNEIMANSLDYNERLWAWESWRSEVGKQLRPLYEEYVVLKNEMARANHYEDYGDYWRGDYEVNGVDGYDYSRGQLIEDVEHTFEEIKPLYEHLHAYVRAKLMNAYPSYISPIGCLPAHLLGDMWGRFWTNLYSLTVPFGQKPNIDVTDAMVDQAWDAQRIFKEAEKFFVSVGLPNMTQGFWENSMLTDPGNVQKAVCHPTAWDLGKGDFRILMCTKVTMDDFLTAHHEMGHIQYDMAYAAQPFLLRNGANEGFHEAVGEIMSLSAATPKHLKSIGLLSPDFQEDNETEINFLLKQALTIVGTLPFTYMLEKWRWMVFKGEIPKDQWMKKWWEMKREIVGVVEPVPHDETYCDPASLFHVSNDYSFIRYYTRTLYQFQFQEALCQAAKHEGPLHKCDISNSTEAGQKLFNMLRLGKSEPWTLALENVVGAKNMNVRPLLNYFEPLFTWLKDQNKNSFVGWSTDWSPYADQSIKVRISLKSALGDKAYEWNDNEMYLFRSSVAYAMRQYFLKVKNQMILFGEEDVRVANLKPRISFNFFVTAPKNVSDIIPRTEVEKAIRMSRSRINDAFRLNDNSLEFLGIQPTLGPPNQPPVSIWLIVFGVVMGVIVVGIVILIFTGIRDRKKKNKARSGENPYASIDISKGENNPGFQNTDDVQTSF

| Binder | Pseudoviral Neutralisation Assay, Geomean IC50 |
| --- | --- |
| ACNAVLCSWARANSFCA (linker 2-7-16 via TATA) [BCY15429] | 1280 nM |
| ACNAVLCSWARANSFCA (linker 2-7-16 via TATA; also: dimer: each monomer attached at C-terminus to central hinge A (PEG23)) [BCY17345] | 6.96 nM |
| ACNAVLCSWARANSFCA (linker 2-7-16 via TATA; also: trimer: each monomer C-terminus attached to hinge B (PEG23)) [BCY17346] | 12 nM |
| ACNAVLCSWARANSFCA (linker 2-7-16 via TATA; also: tetramer: each monomer attached at its C-terminus to central hinge moiety C (PEG23), further groups not given here) [BCY17347] | 3.75 nM |
| Ac-CNSYTCYIKHILG[Agb]C (linker 1-6-15 via TATA; also: dimer: each monomer attached at C-terminus to central hinge A (PEG23)) [BCY19071] | 24 nM |
| Ac-CNAVLCSWA[hArg]ANSFCK(Pent4ynoyl) (linker 1-6-15 via TATA; also: trimer: each monomer attached at C-terminus to central hinge B (PEG23)) [BCY19147] | 17.7 nM |
| Ac-CNAVLCSWA[hArg]ANSFCK(Pent4ynoyl) (linker 1-6-15 via TATA; also: tetramer: each monomer attached at C-terminus to central hinge C (PEG23)) [BCY19148] | 10.1 nM |

— patent publication US20240091368A1 (Bicycle, published 2024)
